According to patent publication US20260258115A1 (MAPP BIOPHARMACEUTICAL, published 2026):
Residue numbers refer to the chain shown, from its start.

B1: ADI-41441 (antibody, V domains shown)
VH: EVQLVQSGPGLVKPSETLSLTCSVSGASISRYHYYWGWIRQSPGKGLEWIGTIYYSGTTYYNPSLESRVTISADTSKNQVSLKLTSVTAADTAVYYCARGSGDTALDFSFEYWGQGALVTVSS
VL: DIQLTQSPSFLSASVGDRITITCRASQGISNSLAWYQQKPGKAPKLLIYAASTLQFAVPSRFSGSGSGTEFTLTISSLQPEDFATYYCQQLDSYPLTFGGGTKLEIK
B2: ADI-41439 (antibody, V domains shown)
VH: QVQLVQSGTEVKNPGASVKVSCKASGYTFSNYGITWVRQAPGQGLEWMAWISAYNGNILYAQNVQGRVTMTTDTSTSTGYMELRSLRSDDTAVYYCARDAPAGTLTLLDYWGQGTLVTVSS
VL: DIVMTQTPLSLPVTLGQPASISCRPSQSLVYSDGNTYLNWFQQRPGQSPRRLIYKVSNRDSGVPDRFSGSGSGTDFTLRISRVEAEDVGVYYCMQGSHWPYAFGQGTKVEIK
B3: ADI-41792 (antibody, V domains shown)
VH: QVQLVQSGGGLVKHGGSLRLSCAASGFTFSSYSMNWVRQAPGKGLEWASSISSSSSYIYYADSVKGRFTISRDNAKNSLYLQMNSLRAEDTAVYYCARTEYSSSSPIFDYWGQGTLVTVSS
VL: QSVLTQPPSVSGAPGQRVTISCTGSSSNIGAGYDVHWYQQLPGTAPKLLTYGNSNRPSGVPDRFSGSKSGTSASLAITGLQAEDEADYYCQSYDSSLSGSVFGGGTKVTVL
B4: ADI-41585 (antibody, V domains shown)
VH: EVQLLESGGGLVKPGGSLRLSCAASGFTFADYYMSWIRQAPGKGLEWVSYISGGSSFTNYADSVKGRFTISRDNAKNSLYLQMNSLRADDTAVYYCARGISPALGGGEYFQDWGQGTLVTVSS
VL: B3 VL with S2P, Q40H, T50I, G70S, S98G, S100Y, G104T
B5: ADI-41594 (antibody, V domains shown)
VH: EVQLVESGGGLVKPGGSLRLSCAASGFSFSSYYMNWVRQAPGKGLEWVSSISPSSSYTNYADSVKGRFTISRDNAKDSLYLQMNSLRAEDTAVYYCARDGLLGITIFGVVQDYWGQGTLVTVSS
VL: QSVVTQPPSVSGAPGQRVTISCTGSSSNIGAGYDVHWYQQLPGTAPKLLIYGNTNRPSGVPDRFSASKSGTSASLAITGLQAEDEADYYCQSYDSSLSVVFGGGTKLTVL
B6: ADI-41599 (antibody, V domains shown)
VH: EVQLLESGGGLVQPGGSLRLSCAASGFIFSNYEMNWVRQAPGKGLEWISHITPTGNSIYYADSVKGRFTISRDNAKNAQYLQMHSLRPDDTAIYYCARGEDPIAATGGFDSWGQGTLVTVSS
VL: EIVLTQSPSSLSASVGDRVTIPRRSSQNVDKFLHWYQQRPGKAPKLLIYAAFSLQSGVPSRFSGSGSGTDFTLTISSLQPEDFATYYCQQSYSTPFTFGQGTKVEIK
B7: ADI-41800 (antibody, V domains shown)
VH: QVQLVQSGAEVKKPGASVKVSCKASGYTFTDYYMHWVRQAPGQGLEWLAWINPYTGGTNYAQKFQGRVTLTRDTSVSTTYMEVTRLRSDDTAVYYCARGESFHHWGQGTLVTVSS
VL: QSALTQPASVSGSPGQSITISCTGTSSDIGGYDYVSWYQQHPGKVPKLMIYEVSTRPSGVSIRFSGSKSGNTASLTISGLQAEDEADYYCSSYTRSTITSVVFGGGTKLTVL
B8: ADI-41595 (antibody, V domains shown)
VH: QVQLVQSGGGVVQPGGSLRLSCAASGFTFSDYGMHWVRQAPGKGLEWVAVISDGGSNQYSADSVRGRFTISRDNSKNTLYLQMNSLRPEDTAVYYCAKARIAARAIFDYWGQGTLVTVSS
VL: DIQLTQSPSSLSASVGERITITCQASRDVRIYLNWYQHKPGKAPKLLIYDASNLETGVPSRYSGSGSGTDFTFTISSLQPEDIATYFCQQYDLLPPTFGVGTKVEIK
B9: ADI-41568 (antibody, V domains shown)
VH: QVQLQQWGARLLKPSETLSLTCAVYGGSFSGYYWSWIRQSPGKGLEWIGEINHSGSTNYNPSLKSRVTISRDTSKKQFSLKVSSVTAADTAVYYCARDPPIRCNGDSCKSDQYRYGMDVWGQGTTVTVSS
VL: QPGLTQPPSVSVSPGQTARITCSGDALPKQYAYWYQQKPGQAPVLVIHKDNERPSGIPERFSGSSSGTTVTLTISGVQAEDEADYYCQSADTSGSYRLFGGGTKLTVL
B10: ADI-41783 (antibody, V domains shown)
VH: QVQLVQSGDEVKKPGASVKVSCKSSGYTFTHFGVSWVRQAPGQGLEWMGWISGYNGNTNYAQKLQGRVTMTTDTSTTTAYMELTSLRSDDTAVYYCARDSPAGTVTLDFWGQGTTVTVSS
VL: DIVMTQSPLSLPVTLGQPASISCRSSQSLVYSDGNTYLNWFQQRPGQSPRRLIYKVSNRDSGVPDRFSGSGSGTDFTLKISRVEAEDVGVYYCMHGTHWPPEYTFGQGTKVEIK
B11: ADI-41810 (antibody, V domains shown)
VH: QVQLVQSGGGVVQPGRSLRLSCAASGFNFHNYAMHWVRQAPGKGLEWVAVISYDGGNKHYADSVKGRFTISRDNSKNTLYLQMNSLRPDDTAVYYCARGHSDWRGDYFDFWGQGTLVTVSS
VL: DIQLTQSPATLSVSPGERAILSCRASQNVGTNLAWYQQKPGQAPRLLIYDASTRATGIPARFSGSGAGTDFTLTISGLQSEDFAVYYCQQYINWPPYTFGQGTKLEIK
B12: ADI-41772 (antibody, V domains shown)
VH: EVQLLESGGGLVEPGTSLRLSCEASGFTFSDYYMSWIRQAPGKGPEWVADISSRGVVTYYADSVKGRFTISRDNAKNSLYLQLNSLGAEDTAVYYCARLREVTYIMPTIDYFDYWGQGTLVTVSS
VL: SYELTQPPSVSVSPGQTARITCSGDAFVKKYAYWYHQKSGQAPVVVIYEDTKRPSGIPERFSGSSSGTTATLTISGAQVEDEGDYYCYSRDFSGDHGVFGGGTKLTVL
B13: ADI-41563 (antibody, V domains shown)
VH: QVQLVESGPGLVKPSETLSLTCTVSDDSITNNFWTWIRQPPGKGLEWIGYIYYSGSTNYNPSLKSRITMSVDLSKNQFSLKLSSVTAADTAVYYCARLTSGGVDYWGQGTLVTVSS
VL: QSVLTQPPSLSGAPGQRVTISCTGSSSNIGADYHVHWYQQLPGTAPKLLIYQNTNRPSGVPDRFSASKSGTSVSLAITGLQAEDEADYYCQSYDSSLSAWVFGGGTKLTVL
B14: ADI-41584 (antibody, V domains shown)
VH: QVQLVESGAEVKKPGASVKVSCKASGYTFTDYYIHWVRQAPGQGLEWVGRINPNSGYINYAQKFQGRLTMTRDTSISTAYLELSSLRSDDTAVYYCTRLPLLEPLNFFDYWGQGTLVTVSS
VL: QSVVTQPPSVSGAPGQRVTISCTGSSSNIGAGYDVHWYQQLPGTAPKVLIYGNNNRPSGVPDRFSGSKSGTSASLAITGLQAEDEADYYCQSFDSSLSSSYVFGTGTKLTVL
B15: ADI-41597 (antibody, V domains shown)
VH: QVQLQESGPGLVKPSETLSLTCTVSGASVSSNNYYWSWIRQPPGKGLEWIGYIYYSGSTNYNASLKSRVTISVDTSKNQFSLKLSSVTAADTALYYCAGEHIFGVASPFEAPFDYWGQGTMVTVSS
VL: SSELSQPPSVSVAPGKTARITCGGNNIGIKSVHWYQQKPGQAPVLVIYSDSDRPSGIPERFSGSNSGNTATLTITRVEAGDEADYYCQVWDSSSDHFVFGIGTKVTVL
B16: ADI-41788 (antibody, V domains shown)
VH: QVQLVQSGAEVKKPGASVKVSCQASGYTLTTYDINWVRQAPGQGLEWMGWMNANSGNTGYAQKFQGRVTMTRNISISTAYMELSSLGPEDTAVYYCARGFYKWNDWSFDYWGQGTLVTVSS
VL: QSVLTQPPSVSVAPGQTARITCGGNNIGSKSVHWYQQKPGQAPVLVVYDDSDRPSGIPERFSGSNSGNTAPLTISRVEAGDEADYYCQVWDGDSAHHAVFGGGTQLTVL
B17: ADI-41589 (antibody, V domains shown)
VH: EVQLLESGGGLVQPGGSLRLSCAASGFTFNFFALTWVRQAPGKGLEWVSAISGSGESTYYADSVKGRFTISRDNSKNTLYLQMNSLRAEDTAVYYCAKFARSGDYASFFDYWGQGTLVTVSS
VL: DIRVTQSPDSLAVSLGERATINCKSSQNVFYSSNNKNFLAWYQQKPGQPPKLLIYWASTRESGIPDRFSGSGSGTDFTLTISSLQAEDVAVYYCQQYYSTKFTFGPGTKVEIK
B18: ADI-36675 (antibody, V domains shown)
VH: EVQLVESGGGLVQPGGSLRLSCAASGFTFNRFAMSWVRQAPGKGLEWVSGISGSGGSTLYADSVKGRFTISRDNSKNTLYLQINSLRVEDTAVYYCASRSSYDDVWNGYVDWDWGFDFYYYGMDVWGQGTTVTVSS
VL: QAVVTQEPSMSAAPGQKVTISCSGGDSNIRNNYVFWYQQLPGTAPKLLIYDNTKRPSGIPGRFSGSKSGASATLDITGLQTGDEADYYCGTWDSSLSALVFGGGTQLTVL
B19: ADI-41571 (antibody, V domains shown)
VH: EVQLLESGGGLVKPGGSLRLSCEASGFPFNSYHMNWIRQSPGKGLEWVSYITGGSSFSNYADSVKGRFTISRDNAKNSLYLQMNSLRAEDTAVYYCARTTLDCTSTSCHYRFDYWGQGTLVTVSS
VL: QSVLTQPPSVSGAPGQRITISCNGSNSNIGAGYDVHWYQQLPGKAPKLLIYSNNNRPSGVPDRFSGSKSGTSASLAITGLQGEDEADYYCQSHDTRLSGNVVFGGGTKLTVL
B20: ADI-41812 (antibody, V domains shown)
VH: EVQLVESGGGLVKPGGSLRLSCAASGFTFSSYSMNWVRQAPGKGLEWVSSISAGSSYTDYAESVKGRFTISRDNAKNSLYLKMNSLRAEDTAVYYCARDPGYCSSNSCTVAMDVWGQGTTVTVSS
VL: SYELTQPPSVSGAPGQRVTISCTGSSSNIGAGYDVHWYQQLPGTAPKLLIYGNNNRPSGVPDRFSGSKSGTSASLAITGLQAEDEADYYCQSYDRTLVIFGGGTKLTVL
B21: ADI-41598 (antibody, V domains shown)
VH: EVQLVESGPGLVKPSETLSLTCTVSGGSITPYYWSWIRQPPGKGLEWIGNISYSGSTTYNPSLKSRVTISVDRSKDQFSLRLRSVTAADTAVYYCARVVTLVLGVSLNDAFDIWGQGTMVTVSS
VL: DIQMTQSPSSLSASVGDRVTITCRASQSISRYLNWYQHKPGKAPILLIYAATTLESGVPPRFSGSGSGTDFSLTISSLQPEDFATYYCQQSYSVPLTFGGGTKLEIK

These binders were tested against RSV fusion glycoprotein (RSV F) on RSV-A2 virus (respiratory syncytial virus, UniProt P03420 26-574) (assay: cell-based or functional assay).

Row | Binder | Neutralization IC50 (RSV subtype A) [µg/mL]
1 | B1 | > 25
2 | B2 | 0.34

The binders below were run against RSV F on RSV-A2 virus (Respiratory syncytial virus, RSV-A2, UniProt P03420 26-574) (assay: cell-based or functional assay).

Row | Binder | Neutralization IC50 (RSV subtype A) [µg/mL]
3 | B3 | > 25
4 | B4 | 0.0641
5 | B5 | 0.0406
6 | B6 | 0.637
7 | B7 | > 25
8 | B8 | 0.0475
9 | B9 | > 25
10 | B10 | 0.25
11 | B11 | > 25
12 | B12 | 0.04
13 | B13 | 0.0323
14 | B14 | > 25
15 | B15 | 0.173
16 | B16 | 0.47
17 | B17 | > 25
18 | B18 | 0.006
19 | B19 | 0.0315
20 | B20 | 0.17
21 | B21 | 0.174
